Source: patent US20170066831A1 (Janssen / Centocor, published 2017)
Where two headings read alike, the source gives them in different places.

T1: cynomolgus (Macaca fascicularis) ST2L extracellular domain with C-terminal His6 tag (Macaca fascicularis (cynomolgus), UniProt Q01638 19-321 (human entry))
T1 construct: also called cyno ST2L-ECD; cynoST2L-ECD
T1 chain: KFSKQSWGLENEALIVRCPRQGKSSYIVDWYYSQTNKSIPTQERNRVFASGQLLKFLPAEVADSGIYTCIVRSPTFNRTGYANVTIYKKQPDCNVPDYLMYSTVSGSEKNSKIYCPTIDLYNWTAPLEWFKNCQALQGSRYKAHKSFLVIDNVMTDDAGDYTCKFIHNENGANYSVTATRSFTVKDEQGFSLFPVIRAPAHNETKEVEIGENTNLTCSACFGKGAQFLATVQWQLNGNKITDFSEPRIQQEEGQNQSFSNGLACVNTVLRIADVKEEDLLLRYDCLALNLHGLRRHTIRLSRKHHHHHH

T2: human ST2L extracellular domain with C-terminal His6 tag (human, UniProt Q01638 19-328)
T2 construct: also called huST2L-ECD; ST2L-ECD
T2 sequence: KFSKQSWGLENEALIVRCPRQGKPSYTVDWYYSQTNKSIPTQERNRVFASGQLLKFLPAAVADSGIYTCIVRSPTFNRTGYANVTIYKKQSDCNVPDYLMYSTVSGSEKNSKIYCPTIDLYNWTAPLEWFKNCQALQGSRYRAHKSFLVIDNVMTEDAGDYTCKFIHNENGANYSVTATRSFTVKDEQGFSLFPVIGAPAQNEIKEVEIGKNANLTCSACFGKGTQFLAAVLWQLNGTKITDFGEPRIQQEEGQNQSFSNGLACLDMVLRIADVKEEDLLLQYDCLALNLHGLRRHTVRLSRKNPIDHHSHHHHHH

T3: human ST2L, full length, on cells (human, UniProt Q01638 19-556)
T3 sequence: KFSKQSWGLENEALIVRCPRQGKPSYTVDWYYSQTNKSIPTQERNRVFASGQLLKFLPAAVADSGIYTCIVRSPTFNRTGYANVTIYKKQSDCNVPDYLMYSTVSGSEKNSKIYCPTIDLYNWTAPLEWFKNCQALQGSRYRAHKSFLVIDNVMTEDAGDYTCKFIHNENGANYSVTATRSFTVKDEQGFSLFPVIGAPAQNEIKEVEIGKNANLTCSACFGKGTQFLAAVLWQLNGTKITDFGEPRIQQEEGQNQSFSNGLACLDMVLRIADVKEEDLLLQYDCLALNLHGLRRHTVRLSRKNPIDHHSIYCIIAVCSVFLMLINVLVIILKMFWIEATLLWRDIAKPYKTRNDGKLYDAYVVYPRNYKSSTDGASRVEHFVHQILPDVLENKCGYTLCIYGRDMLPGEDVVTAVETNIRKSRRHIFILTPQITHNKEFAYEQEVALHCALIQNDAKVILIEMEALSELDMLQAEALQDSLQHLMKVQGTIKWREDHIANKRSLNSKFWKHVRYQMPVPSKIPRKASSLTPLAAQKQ

B1: C2519 (antibody, V domains shown)
VH: EFQLQQSGPELVKPGASVKISCKASGYSFTDYNMNWVKQSHGKSLEWIGNINPYYGSTTYNQKFKGKATLTVDKSSNTAYMHLNSLTSEDSAVYYCAREGDTYLAWFAYWGQGTLVTVSA
VL: DVLMTQTPLSLPVSLGDQASISCRSSQSIVYSNGNTYLEWYLQKPGQSPKLLIYKVSNRFSGVPDRFSGSGSGTDFTLKISRVEAEDLGVYYCFQGSHVPPTFGGGTKLEIK
notes: Mouse hybridoma antibody; also called C2519A
B2: STLM226 (antibody, V domains shown)
VH: EVQLVQSGAEVKKPGATVKISCKVSAFNIKDDYMHWVQQAPGKGLEWMGRIDPAIGNTEYAEKFQGRVTITADTSTDTAYMELSSLRSEDTAVYYCATGDFYAMAYWGQGTLVTVSS
VL: DIQMTQSPSSLSASVGDRVTITCITNTDIDDVIHWYQQKPGKAPKLLIYEGNTLRPGVPSRFSGSGSGTDFTLTISSLQPEDFATYYCLQSDNLLTFGQGTKLEIK
notes: VH STLH201 + VL STLL280
B3: STLM229 (antibody, V domains shown)
VH: EVQLVQSGAEVKKPGATVKISCKVSAFNIKDDYMHWVQQAPGKGLEWMGRIDPAIGNTEYAEKFQGRVTITADTSTDTAYMELSSLRSEDTAVYYCATGDFYAMAYWGQGTLVTVSS
VL: DIQMTQSPSSVSASVGDRVTITCITNTDIDDVIHWYQQKPGKAPKLLIYEGNTLRPGVPSRFSGSGSGTDFTLTISSLQPEDFATYYCLQSDNMLTFGQGTKLEIK
notes: VH STLH201 + VL STLL275
B4: STLM231 (antibody, V domains shown)
VH: EVQLVQSGAEVKKPGATVKISCKVSAFNIKDDYMHWVQQAPGKGLEWMGRIDPAIGNTEYAEKFQGRVTITADTSTDTAYMELSSLRSEDTAVYYCATGDFYAMAYWGQGTLVTVSS
VL: DIQMTQSPSSLSASVGDRVTITCITNTDIDDVIHWYQQKPGKVPKLLIYEGNTLRPGVPSRFSGSGSGTDFTLTISSLQPEDVATYYCLQSDNMLTFGQGTKLEIK
notes: VH STLH201 + VL STLL273; also called S1LM231
B5: STLM230 (antibody, V domains shown)
VH: EVQLVQSGAEVKKPGATVKISCKVSAFNIKDDYMHWVQQAPGKGLEWMGRIDPAIGNTEYAEKFQGRVTITADTSTDTAYMELSSLRSEDTAVYYCATGDFYAMAYWGQGTLVTVSS
VL: DIQMTQSPSSLSASVGDRVTITCITNTDIDDVIHWYQQKPGKAPKLLIYEGNTLRPGVPSRFSGSGSGTDFTLTISSLQPEDFATYYCLQSDNMLTFGQGTKLEIK
notes: VH STLH201 + VL STLL274
B6: STLM227 (antibody, V domains shown)
VH: EVQLVQSGAEVKKPGATVKISCKVSAFNIKDDYMHWVQQAPGKGLEWMGRIDPAIGNTEYAEKFQGRVTITADTSTDTAYMELSSLRSEDTAVYYCATGDFYAMAYWGQGTLVTVSS
VL: DIQLTQSPSFLSASVGDRVTITCITNTDIDDVIHWYQQKPGKAPKLLIYEGNTLRPGVPSRFSGSGSGTEFTLTISSLQPEDFATYYCLQSDNMLTFGQGTKLEIK
notes: VH STLH201 + VL STLL277
B7: STLM232 (antibody, V domains shown)
VH: EVQLVQSGAEVKKPGATVKISCKVSAFNIKDDYMHWVQQAPGKGLEWMGRIDPAIGNTEYAEKFQGRVTITADTSTDTAYMELSSLRSEDTAVYYCATGDFYAMAYWGQGTLVTVSS
VL: DIQMTQSPSSLSASVGDRVTITCITNTDIDDVIHWYQQKPGKAPKLLIYEGNTLRPGVPSRFSGSGSGTDFTFTISSLQPEDIATYYCLQSDNMLTFGQGTKLEIK
notes: VH STLH201 + VL STLL272
B8: STLM228 (antibody, V domains shown)
VH: EVQLVQSGAEVKKPGATVKISCKVSAFNIKDDYMHWVQQAPGKGLEWMGRIDPAIGNTEYAEKFQGRVTITADTSTDTAYMELSSLRSEDTAVYYCATGDFYAMAYWGQGTLVTVSS
VL: DIQMTQSPSTLSASVGDRVTITCITNTDIDDVIHWYQQKPGKAPKLLIYEGNTLRPGVPSRFSGSGSGTEFTLTISSLQPDDFATYYCLQSDNMLTFGQGTKLEIK
notes: VH STLH201 + VL STLL276
B9: STLM210 (antibody, V domains shown)
VH: EVQLLESGGGLVQPGGSLRLSCAASGFTFSDDAMIWVRQAPGKGLEWVSYIGGNGGTTYYADSVKGRFTISRDNSKNTLYLQMNSLRAEDTAVYYCARDPWSTEGSFFVLDYWGQGTLVTVSS
VL: EIVLTQSPATLSLSPGERATLSCRASQSVDDDLAWYQQKPGQAPRLLIYDASNRATGIPARFSGSGSGTDFTLTISSLEPEDFAVYYCQQYNDAITFGQGTKVEIK
notes: frameworks VH3-23 / Vk-L6
B10: STLM212 (antibody, V domains shown)
VH: EVQLLESGGGLVQPGGSLRLSCAASGFTFSVYDMIWVRQAPGKGLEWVSTIRGEGGGTYYADSVKGRFTISRDNSKNTLYLQMNSLRAEDTAVYYCARDPWSTEGSFFVLDYWGQGTLVTVSS
VL: EIVLTQSPATLSLSPGERATLSCRASQSVDDDLAWYQQKPGQAPRLLIYDASNRATGIPARFSGSGSGTDFTLTISSLEPEDFAVYYCQQYNDAITFGQGTKVEIK
notes: frameworks VH3-23 / Vk-L6

Key:
[1] = target: T1, cynomolgus (Macaca fascicularis) ST2L …; assay: SPR, mAb captured, ST2L-ECD in solution
[2] = target: T2, human ST2L extracellular domain with …; assay: SPR, mAb captured, ST2L-ECD in solution
[3] = target: T3, human ST2L, full length, on cells; assay: cell-based or functional assay
[4] = target: T1, cynomolgus (Macaca fascicularis) ST2L …; assay: SPR, mAb captured, ST2L-ECD in solution
[5] = target: T2, human ST2L extracellular domain with …; assay: SPR, mAb captured, ST2L-ECD in solution; remark: listed apart in the source
[6] = target: T2, human ST2L extracellular domain with …; assay: RLB ELISA: biotinylated IL-33 on coated huST2L-ECD, antibody titrated
Description: 96-well plate was coated with 50 μl of 4 μg/ml human ST2L-ECD (amino acids 19-328 of SEQ ID NO: 1) or 2 μg/ml cyno ST2L-ECD (amino acids 19-321 of SEQ ID NO: 2) having C-terminal His₆ tag in bicarbonate buffer at 4° C. for 16 hrs. All subsequent steps were performed at room temperature. Plate was blocked with 200 μl blocking buffer, and was washed 3 times with 300 μl of wash buffer containing PBS+0.05% Tween. 30 μl of various dilutions of anti-ST2L mAbs were added to the wells and incubated for 1 hour. For human receptor-ligand binding assay 20 μl of biotinylated human IL-33 (residues 112-270 of SEQ ID NO: 3) was added at 100 ng/ml final concentration and incubated for 30 minutes. For cyno receptor-ligand binding assay 20 μl of biotinylated cyno IL-33 (residues 112-269 of SEQ ID NO: 4) was added at 200 ng/ml final concentration and incubated for 30 minutes. The plate was washed 3 times with 300 μl of wash buffer. 50 μl of 0.2 μg/ml Streptavidin-HRP (Jackson Immunoresearch) was added and incubated for 30 min. The plate was washed 3 times with 300 μl of wash buffer containing PBS+0.05% Tween. 50 μl of TMB substrate (EMD Biosciences) was added to each well. Reaction was stopped by the addition of 100 μl of 0.2N Sulfuric Acid. OD450 were measured using Envision plate reader (Perkin Elmer).

Row | Binder | Kd [1] | koff [1] | kon [1] | Kd [2] | koff [2] | kon [2] | RGA IC50 [3] | Kd [4] | koff [4] | kon [4] | Kd [5] | koff [5] | kon [5] | IC50 [6]
1 | B1 | 44.8 nM | 0.0032 s⁻¹ | 71400 M⁻¹ s⁻¹ | 0.18 nM | 8.7e-05 s⁻¹ | 483000 M⁻¹ s⁻¹ | – | – | – | – | – | – | – | –
2 | B2 | – | – | – | – | – | – | 0.25 µg/mL | 0.301 nM | 0.0301 s⁻¹ | 1e+08 M⁻¹ s⁻¹ | 0.09 nM | 0.00193 s⁻¹ | 2.16e+07 M⁻¹ s⁻¹ | 0.26 µg/mL
3 | B3 | – | – | – | – | – | – | 0.32 µg/mL | 0.085 nM | 0.0085 s⁻¹ | 1e+08 M⁻¹ s⁻¹ | 0.035 nM | 0.000445 s⁻¹ | 1.29e+07 M⁻¹ s⁻¹ | 0.29 µg/mL
4 | B4 | – | – | – | – | – | – | 1.1 µg/mL | 0.172 nM | 0.0143 s⁻¹ | 8.27e+07 M⁻¹ s⁻¹ | 0.046 nM | 0.000913 s⁻¹ | 1.97e+07 M⁻¹ s⁻¹ | 0.26 µg/mL
5 | B5 | – | – | – | – | – | – | 0.15 µg/mL | 0.144 nM | 0.0073 s⁻¹ | 5.06e+07 M⁻¹ s⁻¹ | 0.038 nM | 0.000426 s⁻¹ | 1.11e+07 M⁻¹ s⁻¹ | 0.28 µg/mL
6 | B6 | – | – | – | – | – | – | 0.23 µg/mL | 0.294 nM | 0.0294 s⁻¹ | 1e+08 M⁻¹ s⁻¹ | 0.064 nM | 0.0017 s⁻¹ | 2.66e+07 M⁻¹ s⁻¹ | 0.17 µg/mL
7 | B7 | – | – | – | – | – | – | 0.15 µg/mL | 0.08 nM | 0.00797 s⁻¹ | 1e+08 M⁻¹ s⁻¹ | 0.025 nM | 0.000449 s⁻¹ | 1.78e+07 M⁻¹ s⁻¹ | 0.31 µg/mL
8 | B8 | – | – | – | – | – | – | 0.28 µg/mL | 0.155 nM | 0.0155 s⁻¹ | 1e+08 M⁻¹ s⁻¹ | 0.052 nM | 0.00104 s⁻¹ | 2.01e+07 M⁻¹ s⁻¹ | 0.2 µg/mL
9 | B9 | – | – | – | – | – | – | 2.1 µg/mL | 0.009 nM | 0.000528 s⁻¹ | 5.7e+07 M⁻¹ s⁻¹ | 0.019 nM | 0.000227 s⁻¹ | 1.21e+07 M⁻¹ s⁻¹ | 0.3 µg/mL
10 | B10 | – | – | – | – | – | – | 4.32 µg/mL | 0.024 nM | 0.000346 s⁻¹ | 1.43e+07 M⁻¹ s⁻¹ | 0.032 nM | 0.000398 s⁻¹ | 1.24e+07 M⁻¹ s⁻¹ | 0.33 µg/mL
